The values that follow come from patent US7176188B2, “Method of lethally sensitizing human and animal cells” (UniversitéLaval, priority 2003, dated 2007).

A short description of this experiment: PARG activity of bacterial extracts expressing recombinant protein (TLC release of 32P-ADP-ribose from 32P-poly(ADP-ribose)). In kind it is biochemical, C. elegans. Particulars: for PARG activity (qualitative): bacterially expressed His-tagged protein, 24 h at 37° C. On the procedure: Cultures of M15-pREP4 bacteria transformed with pQE-PME-3L, were grown overnight at saturation at 37° C. Fresh cultures (1000 ml) were started with 50-mL overnight cultures and grown at 37° C. at OD600 nm 0.600. Cultures were then induced with 1 mM isopropyl-1-thio-β-d-galactopyranoside (IPTG) at 37° C. for 2.5 h. M15-pREP4 bacteria transformed with vector alone were also treated with 1 mM IPTG at 37° C. for 2.5 h. Cultures were pelleted at 3000×g for 10 min at 4° C., resuspended in 10 ml extraction buffer (50 mM KPO4, pH 7.5, 50 mM Kcl, 10 mM β-mercaptoethanol, 0.1% triton X-100) and passed twice at 16,000 psi in a French Pressure Cell (SLM-AMINCO®, Rochester, N.Y.) maintained at 4° C. Extracts were centrifuged for 10 min at 1000×g at 4° C. and protein concentration of supernatants were determined. Each supernatant (23.7 mg/ml for M15+pQE-30 and 22.2 mg/ml for pQE-PME-3L) were analyzed on SDS-PAGE and assayed for PARG activity.
PARG activity was determined according to Ménard et al (1987, Biochem. Cel Biol. 65: 668–673). Ten μl of worm or bacterial extracts were assayed for 24 h at 37° C. in the presence of ^32P-poly(ADP-ribose) followed by a thin layer chromatography. Radiolabeled ADP-ribose units released from ADP-ribose polymers were quantified directly on the TLC using an Instant Imager Electronic Autoradiography device (Canberra-Packard). One unit of PARG is defined as the amount of enzyme required to liberate 1 nmol of ADP-ribose per min at 37° C. under assay conditions (Menard and Poirier, 1987, Biochem. Cell Biol. 65: 668–673). Radiographic X-OMAT film was exposed to the TLC plate and placed at −80° C. for 24 h.

B1: His-PME-3L: His-tagged recombinant C. elegans PARG PME-3L (SEQ ID NO:9) expressed in bacteria from pQE-PME-3L (protein)
chain: MSKKFIELGDPVTQDEKDYEDYVGVGFAHQVPTMKRRKLTEHGNTTESKEDPEEPKSRDVFVSSQSSDESQEDSAENPEIAKEVSENCENLTETLKISNIESLDNVTERSEHTLDNHKSTEPMEEDVNNKSNIDVAINSDEDDELVLEENNKEMRDGEQVQQDLFADDQELIEYPGIMKDTTTQLDITDSEVETAQKMEMIEETEADSTFVGEDSKNQRQSGTTSDEVDADSQINLATKTVRTSSSSFLSTVSTCEAPAKGRARMYQKELEKHVIAFTEGNLTLQPDLNKVDPDRNYRYCTIPNFPASQGKLREDNRYGPKIVLPQRWREFDSRGRRRDSYFYFKRKLDGYLKCYKTTGYFMFVGLLHNMWEFDPDITYKLPALEMYYKEMSELVGREEVLEKFARVARIAKTAEDILPERIYRLVGDVESATLSHKQCAALVARMFFARPDSPFSFCRILSSDKSICVEKLKFLFTYFDKMSMDPPDGAVSFRLTKMDKDTFNEEWKDKKLRSLPEVEFFDEMLIEDTALCTQVDFANEHLGGGVLNHGSVQEEIRFLMCPEMMVGMLLCEKMKQLEAISIVGAYVFSSYTGYGHTLKWAELQPNHSRQNTNEFRDRFGRLRVETIAIDAILFKGSKLDCQTEQLNKANIIREMKKASIGFMSQGPKFTNIPIVTGWWGCGAFNGDKPLKFIIQVIAAGVADRPLHFCSFGEPELAAKCKKIIERMKQKDVTLGMLFSMINNTGLPHKHFEFYVFDRISTYLSSSEDVESSKSSPSVSRA
modifications: His tag; PEPTIDE (1)...(781) PME-3L
Turning to B1, the “PARG activity (qualitative)” value was “display PARG activity”. In addition, for the setting “bacterial extracts, similar rate of bacterial expression”, the “PARG activity compared to His-PME-4” value is reported as around 10 times.

B2: His-PME-4: His-tagged recombinant C. elegans PARG PME-4 (SEQ ID NO:11) expressed in bacteria from pET23a-PME-4 (protein)
chain: MDHENLMKYLEEFRSIRFQPDFQKVDAERNVRYCEITDFPISNISFELLETGVSQQWRNCDQNLFNEYLKTYKNGGYSQFEDLLFKIWGYSEEKERFDLPALKSFYRKMSEIVGEDEVLEKLARLVRITKSACEVLPEKIYRLVGDIESATFSHIQCASLIAWMFFSDTPRLSFIIILQKTTCVAVEKLKFLFTYFDKMSIDPPIGAVSFRKMRITHKQYLENWKLRETNLLPDVQVFDKMSIEETALCTQIDFANKRLGGGVLKGGAVQEEIRFMMCPEMMVAILLNDVTQDLEAISIVGAYVFSSYTGYSNTLKWAKITPKHSAQNNNSFRDQFGRLQTETVAIDAVRNAGTPLECLLNQLTTEKLTREVRKAAIGFLSAGDGFSKIPVVSGWWGCGAFRGNKPLKFLIQVIACGISDRPLQFCTFGDTELAKKCEEMMTLFRNNNVRTGQLFLIINSIGPPLNYSEQYVFDAIRAKINSTKA
modifications: His tag; PEPTIDE (1)...(485) PME-4
Consider B2, for which the “PARG activity (qualitative)” value is “display PARG activity”.
